The source of these data is the RNAGym collection of RNA variant scans (doi:10.7554/elife.90254).

To fix the notation:
B1: LINE1-full (parent)
chain: UACGUAGGUGGUUUUCCCCUGAUAGUGCUAAGGGGGCCUGGAAGUUUGGACUGGGCAGAGCUCAACACAGCGUGGCAAAGUGGCUGUGGCUAGACUGCCUCUCUGGAUUCCUCGUCACUCAGCAGGGCAUCUCUGAGAGAAAUGCC

Variants of B1 are the subject of this data set. The data set is described as follows: self-cleavage, relative activity (ratio to wild type); higher = more cleavage; in vitro, sequencing; the parent is a self-cleaving ribozyme.
U46C C51A: the self-cleavage was 1.52. Consider U47C A140U, for which the self-cleavage came to 0.6. Turning to U46C U62A, the self-cleavage was 0.05. With U47A U73A, the self-cleavage was 1.11. Under U47A U73C stands 1.45. Under U47C U87A stands 0.12. Take U47A C120A: the self-cleavage came out at 1.36. In the case of U46C G48C, the self-cleavage was 1.2.

Regarding U46C G48U, the self-cleavage was 1.61. Under G48A G125A stands 1.38; under U47G A142C, 1.25; under U47A C118A, 0.95. On to U47A U109A, for which the self-cleavage turned out to be 1.74. For U46C A94G, the self-cleavage was found to be 0.4. Turning to U47C A78C, the self-cleavage worked out at 1.96. On to U47C A78U, for which the self-cleavage was determined as 1.89. As to U47C G93U, the self-cleavage came out at 0.04. With U46C U73G, the self-cleavage was 1.65. As to U47C A79G, the self-cleavage turned out to be 1.39.

Consider G48A A77G, for which the self-cleavage was 1.73. Turning to U47G G60A, the self-cleavage came out at 0.02. Regarding U47C U134A, the self-cleavage worked out at 1.34. For U47A U100C, the self-cleavage amounted to 1.81.

Take U47A U52A: the self-cleavage was 1.84. For the variant G49A A129U, the self-cleavage was determined as 1.46.

As to G49A A129G, the self-cleavage was determined as 1.69.

In the case of U46C C101U, the self-cleavage was 2.71.

U46C A142G: the self-cleavage was 1.35. Consider G48U A117G, for which the self-cleavage was determined as 1.13.

Regarding U47C A64G, the self-cleavage is 0.31.

For U47C A64U, the self-cleavage is 0.52. On to G49A U119A, for which the self-cleavage was 1.15. Under U47A A50U stands 0.87.

Regarding U47A A107G, the self-cleavage stood at 0.95. Under U47G U52A stands 1.18. For the variant G48A G93U, the self-cleavage stood at 0.03.

For U47C A57U, the self-cleavage stood at 0.29. As to U46C A141G, the self-cleavage was 1.41. In the case of U47G A129U, the self-cleavage was determined as 0.53. Regarding G49U U108C, the self-cleavage stood at 1.5.

As for U47C G72A, the self-cleavage came out at 0.94. Consider U47A A57G, for which the self-cleavage is 0.54. Turning to U47G G97A, the self-cleavage amounted to 0.05. Regarding G49A G122C, the self-cleavage is 1.28.

In the case of U47A G82A, the self-cleavage was determined as 2.27. As to U47C C113A, the self-cleavage was found to be 1.78. For U47A G88A, the self-cleavage came to 0.01.

Take G49C A141U: the self-cleavage was 1.55. Regarding U47C U100A, the self-cleavage was found to be 1.51. Consider G48A C63U, for which the self-cleavage was 0.36.

Consider G48A U132A, for which the self-cleavage came out at 1.38. For the variant G48A U132C, the self-cleavage worked out at 1.29.

For U46C C111A, the self-cleavage was 1.17. For U46C C111U, the self-cleavage is 1.24. Take U46G G144U: the self-cleavage was determined as 0.95.

In the case of G48U A129G, the self-cleavage was 1.23. Take U47C A138U: the self-cleavage was found to be 1.52. With U46C U104C, the self-cleavage was determined as 1.96. For the variant U46A U132C, the self-cleavage was found to be 1.32. With U46C U102A the figure was 1.09; with U46C U102C, 1.13. With G49U C98A, the self-cleavage turned out to be 0.04. As for U47C A65G, the self-cleavage was 0.09.

As for U47C A65C, the self-cleavage was found to be 0. As for U46G A140G, the self-cleavage was 1.78. Under U47C A59U stands 0.6; under U47C A59G, 0.12; under U46C G54A, 1.21.

On to U47G G48U, for which the self-cleavage came to 0.74. U47C U108G: the self-cleavage came to 1.41.

With U47C U108C, the self-cleavage came out at 1.62.

U47C A136U: the self-cleavage is 1.24.

For the variant U47C A136C, the self-cleavage was found to be 1.09. With U46G U91C the figure was 0.74; with G48A C131G, 0.17; with G48A U134A, 0.83. Turning to U47C A94C, the self-cleavage was 0.12. With U47C A94U the figure was 0.52; with U46A U108C, 1.37; with U46G A50G, 0.92.

For the variant U47G U134C, the self-cleavage turned out to be 0.

On to U46C C145U, for which the self-cleavage is 1.58. Consider U46G U115C, for which the self-cleavage was 1.69.

Consider G49A A141G, for which the self-cleavage worked out at 1.64. Regarding U46C C76U, the self-cleavage worked out at 2.44.

With G49A U143C, the self-cleavage worked out at 1.09.

For the variant G49A U143G, the self-cleavage was 1.1. Take U46C C61U: the self-cleavage turned out to be 0.04. Consider U46A U119C, for which the self-cleavage turned out to be 0.92. With U47A A138U the figure was 1.59; with U46C U81C, 1.46.

G48A U143A: the self-cleavage turned out to be 1.64. For G49U A92G, the self-cleavage turned out to be 0.04. In the case of U47C G53A, the self-cleavage was found to be 1.78. Turning to U47A A65G, the self-cleavage came to 0.07. Turning to U46A U143C, the self-cleavage came to 1.38. With G49U A65C the figure was 0.04; with U47A A141G, 1.37. With U47A A59U, the self-cleavage amounted to 0.81. As to U47C U96C, the self-cleavage was 0.25.

Regarding U47C U96G, the self-cleavage is 0.05. For the variant G49A U96C, the self-cleavage was 0.03.

Turning to U47C U81C, the self-cleavage was 1.51. Turning to U47G U91C, the self-cleavage came to 0.1.

As to U46C A92U, the self-cleavage was 0.76. For U47C A121U, the self-cleavage turned out to be 1.52. Regarding U47C A121G, the self-cleavage is 1.92. Under U47C A121C stands 1.05; under U47A U119A, 1.34; under U47A U81A, 1.11. Regarding G49A G82U, the self-cleavage was 1.49.

Take U47C U130C: the self-cleavage turned out to be 1.63. Turning to U47C U130A, the self-cleavage is 1.31.

On to U46C A77C, for which the self-cleavage is 1.01. On to U47G U73C, for which the self-cleavage worked out at 2.66.

In the case of U47A A121C, the self-cleavage was 1.49. Take G48A A141G: the self-cleavage was found to be 1.42. Under G49U A124U stands 1.59; under U47C U119A, 1.86. On to U47C C84U, for which the self-cleavage stood at 0.38. Turning to U47C C84G, the self-cleavage is 0.11. With U47A U130C, the self-cleavage came out at 1.51. For U46C U134A, the self-cleavage is 1.1.

As to U46C U134C, the self-cleavage amounted to 1.53. Under U46C G125U stands 0.8; under U47G A65C, 0. For U47C U143C, the self-cleavage is 1.57. On to G49A U102C, for which the self-cleavage turned out to be 1.11. Under U47A A69G stands 0.52; under U47C C111A, 1.79. On to U47C U85G, for which the self-cleavage stood at 0.32. Turning to U47C G89A, the self-cleavage amounted to 0.02. With G48C U91C the figure was 1.05. With U46C A50U, the self-cleavage was 1.26. With U46G A69U the figure was 0.1. For U46G A69G, the self-cleavage stood at 0. Consider U47A U112A, for which the self-cleavage was determined as 0.7. On to U47A U112C, for which the self-cleavage was determined as 1.15. Under G48A A136G stands 1.62. U46C U52A: the self-cleavage amounted to 1.45. Under U46G U73G stands 1.5. With U46A U96C the figure was 0.19. Turning to U47A A140G, the self-cleavage was found to be 0.99.

Turning to G49A A117G, the self-cleavage is 1.24.

Regarding U46G A117G, the self-cleavage is 2.26. Take U47A G125A: the self-cleavage is 1.11.

In the case of U47A G125C, the self-cleavage was 1.49. G48U U85A: the self-cleavage stood at 0.1. Regarding U47G A140G, the self-cleavage was 0.71. Take U47G A140U: the self-cleavage worked out at 0.9. Under U46C U108G stands 1.15; under U46C U108C, 1.69; under U46C U108A, 1.4. Take A50C A65U: the self-cleavage was determined as 0.31. G48A A69G: the self-cleavage came out at 0.3. Turning to G48A A69C, the self-cleavage is 0.02.

On to U46G A141G, for which the self-cleavage amounted to 1.16.

Consider U46C G82A, for which the self-cleavage turned out to be 2.42. Regarding U47C C98U, the self-cleavage amounted to 0.52. Under U47A C99A stands 0.48; under U47A C99U, 0.3. For the variant U47A A136G, the self-cleavage turned out to be 1.52.

Turning to U47C C63U, the self-cleavage stood at 0.37. G49U C76U: the self-cleavage stood at 2.46. Turning to U46G U112A, the self-cleavage worked out at 1.47.

U47A C71U: the self-cleavage is 0.9.

U46C G93A: the self-cleavage is 0.07.
